Data set [1] in a line: AP plasma pharmacokinetics (enzymatic PNP assay) in healthy and arthritic rats. It is filed as in vivo, rat. The following applies: for persistence of increased plasma AP levels: 4 hour sampling. On the procedure:
An enzymatic assay was used to determine plasma concentrations of alkaline phosphatase prior to and 0-4 hours after administration a dose of 700 U/kg AP to healthy rats and arthritic rats, FIG. 7. At time points 0, 15, 60, 120 and 240 min after AP administration, a blood sample was drawn from the tail vain of the rats and transferred to a lml Eppendorf microtube containing heparin (454081, Greiner bio-one, Charlotte, USA) as anti-coagulant. As a control, blood was drawn at the same time points from arthritic rats that were injected a t=0 with 500 μl PBS. Eppendorf tubes were centrifuged at 3,000×g for 5 min at 4° C., after which the plasma was collected and stored at −80° C. until use.
The enzymatic assay for AP is based on the conversion of the substrate paranitrophenol-phosphate (PNP; 104105, Sigma-Aldrich, Zwijdrecht, the Netherlands) to paranitrophenol which is measured spectrophotometrically at 405 nm at 25° C. To a 3 ml reaction cuvette was added 2.9 ml substrate solution (containing final concentrations of 25 mM glycine, 10 mM MgCl2, 3 mM PNP, adjusted to pH 9.6 with NaOH). The reaction was started by adding 30 μl of plasma sample, 1:1 diluted in enzyme diluent buffer (25 mM glycine, 1 mM MgCl2, 0.1 mM ZnCl2, 10% (v/v) glycerol, adjusted to pH 9.6 with NaOH). In parallel a reference cuvette was assayed without substrate. The reaction was followed on line for 5 min at 25° C. with continuous monitoring increase of absorbance at 405 nm using a (10037-434, VWR, Radnor, Pa.<USA) spectrophotometer. From the linear phase of A405 increments, AP activity in plasma samples (in U/L) was calculated from a standard curve with serial dilutions of a human recombinant placenta AP stock solution. One Unit of activity is defined as the amount of enzyme decomposing 1 μmol of PNP/min at 25° C.

The test system of data set [2] is macrophages.
Procedure: At the end of the treatment period, arthritic rats receiving 4× AP, 4× AP/low dose MTX, 4× AP/high dose MTX treatment, and untreated rats, were administered with [^18F]fluoro-PEG-folate tracer. Sixty minutes after tracer administration, rats were sacrificed. Low and high dose MTX treated arthritic rats were sacrificed without tracer administration. Upon sacrificing, all rats were excised and knees, blood and various internal organs were collected, rinsed, dipped dry, weighed and the amount of radioactivity determined using an LKB 1282 Compugamma CS gamma counter (LKB, Wallac, Turku, Finland). Results for tracer uptake in the various tissues were expressed as percentage of the injected dose per gram tissue (%ID/g).
In data set [3] the test system is macrophages. The data set can be described thus: [^18F]fluoro-PEG-folate macrophage PET-CT imaging of arthritic knees. It is filed as in vivo. The following applies: PET scan at day 40; one rat per group. The source says: The macrophage PET tracer [^18F]fluoro-PEG-folate was synthesized, with a radiochemical purity of >96.5% and mean specific activity of 27.6±3.5 GBq/μmol. Untreated and 4× AP-treated arthritic were anesthetized using inhalation anaesthetics (isoflurane 2-2.5% and oxygen […]). The tail vein was cannulated with a poly-urethane 3 French cannula (0.7 mm×19 mm, BD Angiocath, Breda, The Netherlands). During PET-CT (Mediso nanoPET-CT, Budapest, Hungary) rats were place in an integrated heating bed (˜35° C.) while monitoring respiratory function. Computed tomography (CT) scan was performed for 5 min, followed by tracer administration (10.7±1.8 MBq) at the start of a dynamic PET scan of 60 min. PET data were normalized, and corrected for scatter, randoms, attenuation, decay and dead time. The list mode PET data were rebinned in 19 successive frames (4×5, 4×10, 2×30, 3×60, 2×300, 3×600 and 1×900 s), which were reconstructed using an iterative 3D Poisson ordered-subsets expectation-maximization algorithm with 4 iterations and 6 subsets. […] The CT and PET images were superimposed for drawing the regions of interest (ROI). […] TACs were expressed as standardized uptake values (SUV), i.e. mean ROI radioactivity concentration normalized to injected dose and body weight.

Data set [4] can be described thus: Tolerability of therapeutic interventions in arthritic rats. Format: in vivo. How it is done: (§1) All rats (except healthy) were immunized and arthritis was induced via 1× or 4× intra-articular (i.a) mBSA injections, 4 or 5 days apart in the arthritic (right) knee, the contralateral (left, non-arthritic) knee serving as control knee. For therapeutic interventions, AP (human recombinant placenta AP, TNO, Zeist, The Netherlands) was administered subcutaneously (s.c.) at a dose of 700 U/kg (≈200 μg), MTX (VU University Medical Centers' Pharmacy) was administered intra-peritoneal (i.p.) at two dosages: 0.3 mg/kg (low dose) and 1.0 mg/kg (high dose). The rats were divided in 8 groups, based on different treatments and treatment schedules. In a prophylactic setting, two rats received AP twice prior to intra-articular (i.a.) arthritis induction and four rats received AP twice prior to intra-articular and 4× PBS in between i.a. injections. In the treatment groups, arthritic rats were administered AP twice or 4× after arthritis induction, either as standalone therapy or in combination with low or high dose MTX. Control rats received 500 μL of PBS (i.p.). […] At the end of study, all rats were sacrificed and tissues were excised for further processing and various analyses.

The next data set has as its system arthritic rats. The experiment in a line: Knee swelling in rats with mBSA antigen-induced arthritis. It is filed as in vivo, rat. How it is done:
Experiments were performed using a rat model for RA as published by Chandruputla et al. (BioMed Int, 2015) to show the effects of recombinant human alkaline phosphatase (hRESCAP) on RA. hRESCAP was compared with MTX used as a positive control. The antigen-induced rat model uses two subcutaneous immunizations with a mixture of methylated bovine serum albumin (mBSA), CFA (complete Freund's adjuvant antigen) and CBP (custom Bordetella pertussis antigen) and intra-articular injections of mBSA on one side knee and saline (negative control) on the counter knee. Immunohistochemical (IHC) analysis specifically focussed on infiltration with macrophages and knee swelling is followed over time after therapeutic treatment with MTX, or hRESCAP.
In the rat model, RA is induced in the right knee (RA knee), the contralateral left knee serves as a internal control (control knee). The model allows various options for therapeutic interventions, either before intra-articular injections or during boosts injections with mBSA. Two hours prior to AP administration, rats received a dose of levamisole (50 mg/kg, s.c.). For comparison, arthritic rats received treatment with methotrexate (1 mg/kg, i.p.).
as §1

Where [5] appears, read: 4x AP, 60 min post tracer injection.
Setting [6] is: arthritic rats, 60 min after tracer.

B1: AP: human recombinant placenta alkaline phosphatase (hRESCAP; TNO, Zeist), an ectophosphatase (protein, UniProt P05187 23-506, looked up)
Alkaline phosphatase, …: IIPVEEENPDFWNREAAEALGAAKKLQPAQTAAKNLIIFLGDGMGVSTVTAARILKGQKKDKLGPEIPLAMDRFPYVALSKTYNVDKHVPDSGATATAYLCGVKGNFQTIGLSAAARFNQCNTTRGNEVISVMNRAKKAGKSVGVVTTTRVQHASPAGTYAHTVNRNWYSDADVPASARQEGCQDIATQLISNMDIDVILGGGRKYMFRMGTPDPEYPDDYSQGGTRLDGKNLVQEWLAKRQGARYVWNRTELMQASLDPSVTHLMGLFEPGDMKYEIHRDSTLDPSLMEMTEAALRLLSRNPRGFFLFVEGGRIDHGHHESRAYRALTETIMFDDAIERAGQLTSEEDTLSLVTADHSHVFSFGGYPLRGSSIFGLAPGKARDRKAYTVLLYGNGPGYVLKDGARPDVTESESGSPEYRQQSAVPLDEETHAGEDVAVFARGPQAHLVHGVQEQTFIAHVMAFAACLEPYTACDLAPPAGTTD
As for B1, in data set [1] (arthritic rats, 700 U/kg i.p.), the “maximum increase of plasma AP levels over baseline” value was determined as 1.7 fold and the “time for plasma AP levels to drop to basal levels” value is listed as “steadily returned to baseline levels”. In data set [1] (arthritic rats, 700 U/kg i.p., listed as hRESCAP), the “time for plasma AP levels to drop to basal levels” value was not above 4 h. In addition, the “time to maximum (peak) plasma AP level” value in data set [1] (healthy and arthritic rats, 700 U/kg i.p.) came out at 1 h. Also, the “peak plasma levels above baseline” value in data set [1] (healthy and arthritic rats, single i.p. dose of 700 U/kg) is recorded as 50-70%. In data set [1] (healthy rats, 700 U/kg i.p.), the “maximum increase of plasma AP levels over baseline” value is given as 1.5 fold and the “persistence of increased plasma AP levels” value was “retained for up to 4 hours”. For the same molecule, the “persistence of increased plasma AP levels” value in data set [1] (healthy rats, 700 U/kg i.p., listed as hRESCAP) is listed as “remained stably higher above control level in plasma over 4 hours”. Further, in the data set on macrophages [2] (setting [5]), the “[^18F]fluoro-PEG-folate uptake, Heart, Avg” value amounted to 0.117 % ID/g; the “[^18F]fluoro-PEG-folate uptake, Liver, Avg” value turned out to be 0.151 % ID/g; the “[^18F]fluoro-PEG-folate uptake, Lung, Avg” value stood at 0.111 % ID/g; the “[^18F]fluoro-PEG-folate uptake, Spleen, Avg” value was determined as 0.779 % ID/g. In the data set with macrophages [2] (setting [6]), the “[^18F]fluoro-PEG-folate uptake in kidney and intestine (in words)” value is on record as “not impacted”; the “[^18F]fluoro-PEG-folate uptake in lung, heart, liver and spleen (in words)” value was “reductions”. For the same molecule, the “increased [^18F]fluoro-PEG-folate uptake (SUV) in arthritic knee of the untreated rat compared to the 4× AP-treated rat” value with macrophages [3] stood at 1.5 fold. Besides, in data set [4], the “changes in body weight” value was “nor were significant changes in the body weight observed”. Also, the “tolerability / adverse effects” value in data set [4] (AP 700 U/kg, MTX 0.3 or 1.0 mg/kg) is “well tolerated”. For the same molecule, the “swelling of the mBSA-injected right knee” value in the data set with arthritic rats (prophylactic and therapeutic AP treatment or MTX treatment, versus positive control) is reported as “Reduced swelling”. Also, the “swelling of the non-treated left knee” value in the data set with arthritic rats (versus positive control treatment) is reported as “swelling is reduced”.

The values are drawn from patent US11103562B2, “Composition comprising alkaline phosphatase for use in the treatment of arthritides” (AMRIF BV, priority 2017, dated 2021).
